Results reported in patent US20240230671A9, “COMPOSITIONS AND METHODS FOR IDENTIFICATION OF CROSS-REACTIVE ALLERGENIC PROTEINS AND TREATMENT OF ALLERGIES” (Alladapt Immunotherapeutics, Inc., priority 2021, published 2024).
Each block holds one molecule with its values, some of them ahead of it.

Tests used:
[1] = system: dendritic cells; assay: Mouse study: CD4+ T cells from peptide-dosed mice incubated with antigen-loaded dendritic cells; assay type: cell-based; conditions: 50 ug peptide orally for 4 weeks; tetanus toxoid as control
Procedure: Mouse Study: A composition comprising 50 ug of the cross-reactive peptide comprising the MHC-II-binding T-cell epitope 5′-[…]-3′ and a pharmaceutical acceptable carrier is administered orally to mice for 4 weeks. Two weeks after the last dose, blood is drawn from a peripheral vein and CD4+ T cells are purified by cell sorting on magnetic beads. CD4+ T-cells are added to culture medium in which histocompatible dendritic cells, used as antigen presenting cells, are incubated with either the peptide sequence or with tetanus toxoid as a control for 2 hr at room temperature. The cells are then washed and purified CD4+ T-cells are added to culture medium. […] Incubation of CD4+ T-cells with dendritic cells loaded with the hazelnut Cor_i_9 antigen results in dendritic cell apoptosis.

[2] = Single allergen subcutaneous immunotherapy in walnut and hazelnut allergic subjects; assay type: in vivo
[3] = system: IgE; assay: ALEX2 chip ELISA-based multiplex assay for IgE binding to allergens; set-up: species or system human
From the text: In another example, forty-two human serum samples with self-reported clinical allergies were obtained and analyzed in triplicate on an ALEX2 chip (developed by Macro Array Diagnostics), which enables an ELISA-based multiplex assay for the detection of IgE adsorption to allergen components and extracts. […] The assay detects the binding of IgE to these allergens in an ELISA-based multiplex fashion. The dynamic range of the chip spans a little over two orders of magnitude, 0.3-50 kUA/L.

Molecule: HWNLNAHSVVYALRG
apoptosis of antigen-presenting dendritic cells by CD4+ T cells [1]: induce apoptosis of dendritic cells presenting the Cor_i_9 antigen | allergic reaction after immunotherapy [2]: fail to react to both walnuts and hazelnuts

Pearson Correlation coefficient based on ALEX data ([3]; Bet v 1 family, correlation of IgE levels with Bet v 1, 22 Bet v 1-positive human serum samples): 0.62
B1: Mal d 1: Apple allergen, Bet v 1 family, on ALEX2 chip (protein, UniProt P43211 2-159, looked up)
Major allergen Mal d 1: GVYTFENEFTSEIPPSRLFKAFVLDADNLIPKIAPQAIKQAEILEGNGGPGTIKKITFGEGSQYGYVKHRIDSIDEASYSYSYTLIEGDALTDTIEKISYETKLVACGSGSTIKSISHYHTKGNIEIKEEHVKVGKEKAHGLFKLIESYLKDHPDAYN

Pearson Correlation coefficient based on ALEX data ([3]; Tropomyosin family, correlation of IgE levels with Penm1): 0.99
B2: Derp: European house dust mite allergen, Tropomyosin family, on ALEX2 chip (protein, UniProt O18416 1-284, looked up)
Tropomyosin: MEAIKNKMQAMKLEKDNAIDRAEIAEQKARDANLRAEKSEEEVRALQKKIQQIENELDQVQEQLSAANTKLEEKEKALQTAEGDVAALNRRIQLIEEDLERSEERLKIATAKLEEASQSADESERMRKMLEHRSITDEERMEGLENQLKEARMMAEDADRKYDEVARKLAMVEADLERAEERAETGESKIVELEEELRVVGNNLKSLEVSEEKAQQREEAHEQQIRIMTTKLKEAEARAEFAERSVQKLQKEVGRLEDELVHEKEKYKSISDELDQTFAELTGY
modifications: tropomyosin
notes: European house dust mite allergen, Tropomyosin family, on ALEX2 chip

samples with a positive value for the allergen ([3]; of forty two human serum samples run on the ALEX2 chip): 22 samples
B3: Bet v 1: Silver birch allergen, Bet v 1 family, recombinant allergen on ALEX2 chip (protein)
chain: GVFNYETETTSVIPAARLFKAFILDGDNLFPKVAPQAISSVENIEGNGGPGTIKKISFPEGFPFKYVKDRVDEVDHTNFKYNYSVIEGGPIGDTLEKISNEIKIVATPDGGSILKISNKYHTKGDHEVKAEQVKASKEMGETLLRAVESYLLAHSDAYN
